Measurements from paper PMC2917093 (Biochemistry, 2009).
Where “and” joins values, the source holds several entries; their conditions need not be identical. Equal entries are not always repeated.

Target: T1, human ribonucleotide reductase small subunit β′ (p53R2) (human, UniProt Q7LG56 1-351)
T1 sequence (looked up): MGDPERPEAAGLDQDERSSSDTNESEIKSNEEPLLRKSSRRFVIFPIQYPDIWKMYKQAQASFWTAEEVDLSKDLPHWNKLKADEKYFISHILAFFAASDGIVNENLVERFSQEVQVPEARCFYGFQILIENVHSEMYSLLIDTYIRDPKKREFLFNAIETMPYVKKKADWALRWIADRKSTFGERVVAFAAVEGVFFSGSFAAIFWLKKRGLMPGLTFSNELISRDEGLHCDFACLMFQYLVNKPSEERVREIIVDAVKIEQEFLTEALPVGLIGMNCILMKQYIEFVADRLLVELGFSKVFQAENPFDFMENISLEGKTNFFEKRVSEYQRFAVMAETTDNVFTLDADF
Experiment: SEC

B1: human ribonucleotide reductase large subunit α (enzyme, UniProt P23921 1-792, looked up)
chain: MHVIKRDGRQERVMFDKITSRIQKLCYGLNMDFVDPAQITMKVIQGLYSGVTTVELDTLAAETAATLTTKHPDYAILAARIAVSNLHKETKKVFSDVMEDLYNYINPHNGKHSPMVAKSTLDIVLANKDRLNSAIIYDRDFSYNYFGFKTLERSYLLKINGKVAERPQHMLMRVSVGIHKEDIDAAIETYNLLSERWFTHASPTLFNAGTNRPQLSSCFLLSMKDDSIEGIYDTLKQCALISKSAGGIGVAVSCIRATGSYIAGTNGNSNGLVPMLRVYNNTARYVDQGGNKRPGAFAIYLEPWHLDIFEFLDLKKNTGKEEQRARDLFFALWIPDLFMKRVETNQDWSLMCPNECPGLDEVWGEEFEKLYASYEKQGRVRKVVKAQQLWYAIIESQTETGTPYMLYKDSCNRKSNQQNLGTIKCSNLCTEIVEYTSKDEVAVCNLASLALNMYVTSEHTYDFKKLAEVTKVVVRNLNKIIDINYYPVPEACLSNKRHRPIGIGVQGLADAFILMRYPFESAEAQLLNKQIFETIYYGALEASCDLAKEQGPYETYEGSPVSKGILQYDMWNVTPTDLWDWKVLKEKIAKYGIRNSLLIAPMPTASTAQILGNNESIEPYTSNIYTRRVLSGEFQIVNPHLLKDLTERGLWHEEMKNQIIACNGSIQSIPEIPDDLKQLYKTVWEISQKTVLKMAAERGAFIDQSQSLNIHIAEPNYGKLTSMHFYGWKQGLKTGMYYLRTRPAANPIQFTLNKEKLKDKEKVSKEEEEKERNTAAMVCSLENRDECLMCGS
stoichiometry N: 1.2 α:β' and 1 α:β' and 1.06 α:β'
